Measured values: US20030180895A1

How the values were obtained:
Experiment in all cases: cell-based or functional assay
[1] = molecular target: Bacillus subtilis xylanase A mutant D11K (Bacillus subtilis) (UniProt P18429)
[2] = molecular target: Bacillus subtilis xylanase A mutant N114F (Bacillus subtilis) (UniProt P18429)
[3] = molecular target: Bacillus subtilis xylanase A mutant N17Y (Bacillus subtilis) (UniProt P18429)
[4] = molecular target: Bacillus subtilis xylanase A mutant R122D (Bacillus subtilis) (UniProt P18429)
[5] = molecular target: Bacillus subtilis xylanase A mutant Y113D (Bacillus subtilis) (UniProt P18429)
[6] = molecular target: Thermomyces lanuginosus xylanase A mutant D19F (Thermomyces lanuginosus) (UniProt O43097)
UniProt O43097, sequence (O43097 32-225, stated change not applied): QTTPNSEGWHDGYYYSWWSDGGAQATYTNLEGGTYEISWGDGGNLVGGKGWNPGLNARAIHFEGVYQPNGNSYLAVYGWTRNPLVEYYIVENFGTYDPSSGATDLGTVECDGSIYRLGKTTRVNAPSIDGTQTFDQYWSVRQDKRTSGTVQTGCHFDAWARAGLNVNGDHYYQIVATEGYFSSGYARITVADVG

Substance wheat endogenous xylanase inhibitor has a Relative inhibition, % at 1, 26 XIU/ml [1] of 109%, a Relative inhibition, % at 3, 15 XIU/ml [1] of 112% and a Relative inhibition, % at 6, 3 XIU/ml [1] of 113%. For the same substance, the Relative inhibition, % at 12, 6 XIU/ml [1] was 116%, the Relative inhibition, % at 1, 26 XIU/ml [2] was 84% and the Relative inhibition, % at 3, 15 XIU/ml [2] was 54%. It also gave a Relative inhibition, % at 6, 3 XIU/ml [2] of 39%, a Relative inhibition, % at 12, 6 XIU/ml [2] of 34% and a Relative inhibition, % at 1, 26 XIU/ml [3] of 79%. It also gave a Relative inhibition, % at 3, 15 XIU/ml [3] of 42%, a Relative inhibition, % at 6, 3 XIU/ml [3] of 23% and a Relative inhibition, % at 12, 6 XIU/ml [3] of 19%. The Relative inhibition, % at 1, 26 XIU/ml [4] was 85%, the Relative inhibition, % at 3, 15 XIU/ml [4] was 59% and the Relative inhibition, % at 6, 3 XIU/ml [4] was 41%. It also gave a Relative inhibition, % at 12, 6 XIU/ml [4] of 28%, a Relative inhibition, % at 1, 26 XIU/ml [5] of 96% and a Relative inhibition, % at 3, 15 XIU/ml [5] of 81%. For the same substance, the Relative inhibition, % at 6, 3 XIU/ml [5] was 63%, the Relative inhibition, % at 12, 6 XIU/ml [5] was 45% and the Relative inhibition, % at 1, 26 XIU/ml [6] was 73%. It also gave a Relative inhibition, % at 3, 15 XIU/ml [6] of 38%, a Relative inhibition, % at 6, 3 XIU/ml [6] of 24% and a Relative inhibition, % at 12, 6 XIU/ml [6] of 20%.
